In series [1] the target is T1, Use1 purified from bacteria.
T1 chain: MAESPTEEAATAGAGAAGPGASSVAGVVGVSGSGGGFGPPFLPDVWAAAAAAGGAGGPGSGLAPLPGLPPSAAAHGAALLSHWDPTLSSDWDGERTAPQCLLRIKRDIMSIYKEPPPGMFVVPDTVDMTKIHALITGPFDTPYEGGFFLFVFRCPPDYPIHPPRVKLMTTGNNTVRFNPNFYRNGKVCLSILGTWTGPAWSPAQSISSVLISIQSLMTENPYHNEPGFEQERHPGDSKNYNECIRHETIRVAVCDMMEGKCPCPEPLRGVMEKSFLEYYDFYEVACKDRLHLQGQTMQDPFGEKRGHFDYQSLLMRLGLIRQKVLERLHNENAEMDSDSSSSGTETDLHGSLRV

Chain of GST-Ub, P0CG48 (P0CG48 whole entry, looked up): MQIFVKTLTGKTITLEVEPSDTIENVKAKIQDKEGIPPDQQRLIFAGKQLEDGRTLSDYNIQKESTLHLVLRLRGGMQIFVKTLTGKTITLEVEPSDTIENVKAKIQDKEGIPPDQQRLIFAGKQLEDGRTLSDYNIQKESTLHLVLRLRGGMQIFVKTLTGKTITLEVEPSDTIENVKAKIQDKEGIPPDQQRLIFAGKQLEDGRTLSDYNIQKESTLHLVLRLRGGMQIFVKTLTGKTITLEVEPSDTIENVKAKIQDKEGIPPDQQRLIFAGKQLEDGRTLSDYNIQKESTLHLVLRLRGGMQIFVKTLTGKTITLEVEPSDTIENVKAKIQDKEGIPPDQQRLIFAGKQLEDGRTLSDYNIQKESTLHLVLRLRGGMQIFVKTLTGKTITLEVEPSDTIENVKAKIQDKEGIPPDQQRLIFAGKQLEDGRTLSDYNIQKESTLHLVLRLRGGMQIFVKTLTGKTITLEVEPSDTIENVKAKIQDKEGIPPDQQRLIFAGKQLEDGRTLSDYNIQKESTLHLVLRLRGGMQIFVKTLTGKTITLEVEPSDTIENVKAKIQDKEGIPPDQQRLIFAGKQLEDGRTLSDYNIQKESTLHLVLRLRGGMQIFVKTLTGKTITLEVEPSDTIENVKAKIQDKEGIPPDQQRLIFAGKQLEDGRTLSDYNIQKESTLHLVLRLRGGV
Chain of GST-Nedd8, Q15843 (Q15843 whole entry, looked up): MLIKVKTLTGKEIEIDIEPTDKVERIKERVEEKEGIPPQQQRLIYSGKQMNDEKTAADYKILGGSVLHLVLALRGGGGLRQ
Chain of GST-ISG15, P05161 (P05161 1-157): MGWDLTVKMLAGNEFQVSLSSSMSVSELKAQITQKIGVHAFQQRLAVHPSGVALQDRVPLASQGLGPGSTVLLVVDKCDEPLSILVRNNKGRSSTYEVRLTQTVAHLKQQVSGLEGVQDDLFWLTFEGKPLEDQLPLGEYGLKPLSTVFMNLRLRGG

B1: Flag-tagged Uba6 (protein)
chain: MEGSEPVAAHQGEKASCSSWGTGSTNKNLPIMSTASVEIDDALYSRQRYVLGDTAMQKMAKSHVFLSGMGGLGLEIAKNLVLAGIKAVTIHDTEKCQAWDLGTNFFLSEDDVVNKRNRAEAVLKHIAELNPYVHVTSSSAPFNETTDLSFLDKYQCVVLTEMKLPLQKKINDFCRSQCPPIKFISADVHGIWSRLFCDFGDEFEVLDTTGEEPKEIFISNITQTNPGIVTCLENHPHKLETGQFLTFREINGMTGLNGSIQQITVISPFSFSIGDTTELEPYLHGGIAVQVKTPKTVFFESLERQLKHPKCLIVDFSNPEAPLEIHTAMLALDQFQEKYSRKPNVGCQQDSEELLKLATSISETLEEKPDVNADIVHWLSWTAQGFLSPLAAAVGGVASQEVLKAVTGKFSPLCQWLYLEAADIVESLGKPECEEFLPRGDRYDALRACIGDTLCQKLQNLNIFLVGCGAIGCEMLKNFALLGVGTSKEKGMITVTDPDLIEKSNLNRQFLFRPHHIQKPKSYTAADATLKINSQIKIDAHLNKVCPTTETIYNDEFYTKQDVIITALDNVEARRYVDSRCLANLRPLLDSGTMGTKGHTEVIVPHLTESYNSHRDPPEEEIPFCTLKSFPAAIEHTIQWARDKFESSFSHKPSLFNKFWQTYSSAEEVLQKIQSGHSLEGCFQVIKLLSRRPRNWSQCVELARLKFEKYFNHKALQLLHCFPLDIRLKDGSLFWQSPKRPPSPIKFDLNEPLHLSFLQNAAKLYATVYCIPFAEEDLSADALLNILSEVKIQEFKPSNKVVQTDETARKPDHVPISSEDERNAIFQLEKAILSNEATKSDLQMAVLSFEKDDDHNGHIDFITAASNPRAKMYSIEPADRFKTKRIAGKIIPAIATTTATVSGLVALEMIKVTGGYPFEAYKNCFLNLAIPIVVFTETTEVRKTKIRNGISFTIWDRWTVHGKEDFTLLDFINAVKEKYGIEPTMVVQGVKMLYVPVMPGHAKRLKLTMHKLVKPTTEKKYVDLTVSFAPDIDGDEDLPGPPVRYYFSHDTD
With B1, in the series with GST-Nedd8, Q15843, the “activation in vitro, titration of GST-Nedd8, anti-Flag immunoblot; result: not activated” value is “Uba6 activated GST-Ub but not GST-Nedd8”. For the same protein, in the series with GST-Ub, P0CG48, the “activation in vitro, titration of GST-Ub, anti-Flag immunoblot; result: activated” value is reported as “Uba6 activated GST-Ub but not GST-Nedd8” and the “ubiquitin activation in vitro (non-reducing SDS-PAGE, Coomassie); result: activated” value is listed as “Uba6 could activate ubiquitin”. In addition, in series [1], the “charging of purified Use1 (2.5 µM) with increasing Flag-Uba6, 25 µM ubiquitin, 2 mM ATP; result: charged” value was “Charging of purified Use1 by Uba6”.

B2: GST-Ube1L (protein)
chain: MDALDASKLLDEELYSRQLYVLGSPAMQRIQGARVLVSGLQGLGAEVAKNLVLMGVGSLTLHDPHPTCWSDLAAQFLLSEQDLERSRAEASQELLAQLNRAVQVVVHTGDITEDLLLDFQVVVLTAAKLEEQLKVGTLCHKHGVCFLAADTRGLVGQLFCDFGEDFTVQDPTEAEPLTAAIQHISQGSPGILTLRKGANTHYFRDGDLVTFSGIEGMVELNDCDPRSIHVREDGSLEIGDTTTFSRYLRGGAITEVKRPKTVRHKSLDTALLQPHVVAQSSQEVHHAHCLHQAFCALHKFQHLHGRPPQPWDPVDAETVVGLARDLEPLKRTEEEPLEEPLDEALVRTVALSSAGVLSPMVAMLGAVAAQEVLKAISRKFMPLDQWLYFDALDCLPEDGELLPSPEDCALRGSRYDGQIAVFGAGFQEKLRRQHYLLVGAGAIGCELLKVFALVGLGAGNSGGLTVVDMDHIERSNLSRQFLFRSQDVGRPKAEVAAAAARGLNPDLQVIPLTYPLDPTTEHIYGDNFFSRVDGVAAALDSFQARRYVAARCTHYLKPLLEAGTSGTWGSATVFMPHVTEAYRAPASAAASEDAPYPVCTVRYFPSTAEHTLQWARHEFEELFRLSAETINHHQQAHTSLADMDEPQTLTLLKPVLGVLRVRPQNWQDCVAWALGHWKLCFHYGIKQLLRHFPPNKVLEDGTPFWSGPKQCPQPLEFDTNQDTHLLYVLAAANLYAQMHGLPGSQDWTALRELLKLLPQPDPQQMAPIFASNLELASASAEFGPEQQKELNKALEVWSVGPPLKPLMFEKDDDSNFHVDFVVAAASLRCQNYGIPPVNRAQSKRIVGQIIPAIATTTAAVAGLLGLELYKVVSGPRPRSAFRHSYLHLAENYLIRYMPFAPAIQTFHHLKWTSWDRLKVPAGQPERTLESLLAHLQEQHGLRVRILLHGSALLYAAGWSPEKQAQHLPLRVTELVQQLTGQAPAPGQRVLVLELSCEGDDEDTAFPPLHYEL
Consider B2, for which, in the series with GST-ISG15, P05161, the “activation in vitro (SDS-PAGE, Coomassie); result: activated” value was “While it was active toward ISG15, as expected”. For the same protein, the “activation in vitro (SDS-PAGE, Coomassie); result: not activated” value in the series with GST-Ub, P0CG48 is “it failed to activate GST-Ub”.

B3: Uba3/APPBP1 (protein)
chain 1: MADGEEPEKKRRRIEELLAEKMAVDGGCGDTGDWEGRWNHVKKFLERSGPFTHPDFEPSTESLQFLLDTCKVLVIGAGGLGCELLKNLALSGFRQIHVIDMDTIDVSNLNRQFLFRPKDIGRPKAEVAAEFLNDRVPNCNVVPHFNKIQDFNDTFYRQFHIIVCGLDSIIARRWINGMLISLLNYEDGVLDPSSIVPLIDGGTEGFKGNARVILPGMTACIECTLELYPPQVNFPMCTIASMPRLPEHCIEYVRMLQWPKEQPFGEGVPLDGDDPEHIQWIFQKSLERASQYNIRGVTYRLTQGVVKRIIPAVASTNAVIAAVCATEVFKIATSAYIPLNNYLVFNDVDGLYTYTFEAERKENCPACSQLPQNIQFSPSAKLQEVLDYLTNSASLQMKSPAITATLEGKNRTLYLQSVTSIEERTRPNLSKTLKELGLVDGQELAVADVTTPQTVLFKLHFTS
chain 2: MAQLGKLLKEQKYDRQLRLWGDHGQEALESAHVCLINATATGTEILKNLVLPGIGSFTIIDGNQVSGEDAGNNFFLQRSSIGKNRAEAAMEFLQELNSDVSGSFVEESPENLLDNDPSFFCRFTVVVATQLPESTSLRLADVLWNSQIPLLICRTYGLVGYMRIIIKEHPVIESHPDNALEDLRLDKPFPELREHFQSYDLDHMEKKDHSHTPWIVIIAKYLAQWYSETNGRIPKTYKEKEDFRDLIRQGILKNENGAPEDEENFEEAIKNVNTALNTTQIPSSIEDIFNDDRCINITKQTPSFWILARALKEFVAKEGQGNLPVRGTIPDMIADSGKYIKLQNVYREKAKKDAAAVGNHVAKLLQSIGQAPESISEKELKLLCSNSAFLRVVRCRSLAEEYGLDTINKDEIISSMDNPDNEIVLYLMLRAVDRFHKQQGRYPGVSNYQVEEDIGKLKSCLTGFLQEYGLSVMVKDDYVHEFCRYGAAEPHTIAAFLGGAAAQEVIKIITKQFVIFNNTYIYSGMSQTSATFQL
B3: in the series with GST-Nedd8, Q15843, the “activation in vitro (non-reducing gel); result: activated” value is listed as “GST-Nedd8 is activated by Uba3/APPBP1 in vitro”.

For the origin of these results see US20100047255.
